Data taken from the nanobody polyreactivity screen of Harvey et al. (2022).

Experiment: yeast display, Sf9 membrane polyspecificity reagent, FACS + sequencing; frameworks hold sequencing errors
In short: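 Sorting gates, low and high (top ~1%), were placed on anti-HA fluorescence to track expression and on streptavidin fluorescence to track reagent binding. A clone's polyreactivity label is taken from the gate it came out of. The reagent was 10% biotinylated, detergent-solubilized Sf9 membrane, applied for 1 hour at 4 °C to galactose-induced yeast display cells.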
With “QVQLVESGGGLVQAGGSLRLSCAASGLILSSNAMGWYRKAPGQERELVAAITWDGDRTYADSVKGRFTISRDNAKNTVYLQMNSLKPEDTAVYYCAARIGTGVLTGRGANSHMDYWGQGTQVTVSS” the “polyreactivity (PSR sort gate)” value was “low polyreactivity”.
For “QVQLVESGGGLVQAGGSLRLSCAASGLILYTYAMGWSRQAPGQVRELVAAINSGGRTYYADAVKGRFTISRDNAKNTVYLQMNSLKPEDTAVYYCAADYGSRVRGFNYWGQGTQVTVSS”, the “polyreactivity (PSR sort gate)” value was “low polyreactivity”.
With “QVQLVESGGGLVQAGGSLRLSCAASGLILYWYAMGWYRQAPGKERELVAAISISGGSTYYADSVKGRFTISRDNAKNTVYLQMNSLKPDDTAVYYSAAVYFYSWEGDGDYWGLGTQVTVSS” the “polyreactivity (PSR sort gate)” value was “low polyreactivity”.
With “QVQLVESGGGLVQAGGSLRLSCAASGLISESYAMGWYRQAPGKERELVAAISSGGSTYYADSVKGRFTISRDNAKNTVYLQMNSLKPEDTAVYYCNATGYKYNYGHAYYYAVDYWGQGTQVTVSS” the “polyreactivity (PSR sort gate)” value was “low polyreactivity”.
In the case of “QVQLVESGGGLVQAGGSLRLSCAASGLIVPWYDMGWYRQAPGKERELVAAINWRGGSTYYADSVKGRFTISRDNAKNTVYLQMKSLKPEDTAVYYCAACYLHRDSYIYDYWGQGTQVTVSS”, the “polyreactivity (PSR sort gate)” value is reported as “low polyreactivity”.
With “QVQLVESGGGLVQAGGSLRLSCAASGLIYFYAMGWYRQAPGKERELVAAISSTGGRTYYADSVKGRFTIARDNAKNTVYLQMNSVKPEDTAVYYCNVLVYNVYTRGYYSYKYYFWGQGTQVTVSS” the “polyreactivity (PSR sort gate)” value was “high polyreactivity”.
In the case of “QVQLVESGGGLVQAGGSLRLSCAASGLIYPVYAMGWYRQAPGKEREFVAAITYDGGNTYYADSVKGRFTISRDNAKNTVYLQMNSLKPEDTAVYYCAAEGVELISTRDPHDDYWGQGTQVTVSS”, the “polyreactivity (PSR sort gate)” value is reported as “low polyreactivity”.
For “QVQLVESGGGLVQAGGSLRLSCAASGLIYSYNAMGWTRQAPGKERELVAAISRSGGTPYYADSVKGRFTISRDNANNTVYLQMNSLKPEDTEVYYCAAEIRFLSWEYDYWGQGTQVSVSS”, the “polyreactivity (PSR sort gate)” value was “high polyreactivity”.
In the case of “QVQLVESGGGLVQAGGSLRLSCAASGLIYSYYVMGWNRQAPGKERELVPAINESGGRTYYADSVKGRFTISRDNAKNTVYLEMNSLKPEDTAVYYCAASVLNKIQGYRDYYCGQGTQVTVSS”, the “polyreactivity (PSR sort gate)” value is reported as “low polyreactivity”.
For “QVQLVESGGGLVQAGGSLRLSCAASGLKFGVNPMGWYRPAPGKERELVAAISRDSDTNYADSVKGRFTISRDNAKNTVYLQMISLKPEDTAVYYFNAYSEWPVPSPPRSQSLDYWGQGTQVTVSS”, the “polyreactivity (PSR sort gate)” value was “low polyreactivity”.
For “QVQLVESGGGLVQAGGSLRLSCAASGLMVTYYAMCGYRPAPGKARELVAAINYSGGSTYDADSVKGRFTISRDNAKTTVYLLMNSLKPEDTAVYYCAARRFTQTEGPMGYWGQGTQVTFSS”, the “polyreactivity (PSR sort gate)” value was “low polyreactivity”.
In the case of “QVQLVESGGGLVQAGGSLRLSCAASGLNFGVNAMGLYRQAPGKERELVAAISRSGGSTYYADSVKGRFTISRDNAKNSVYLQMNSLKPEDTAVYYCAAAAWDPKGSRYDYWGHGTQVTVSS”, the “polyreactivity (PSR sort gate)” value is reported as “low polyreactivity”.
With “QVQLVESGGGLVQAGGSLRLSCAASGLNFSYYAMGWYRQAPGKERELVAAINSGGSTYYADSVKGRFTISRDNAKNTVYLQMNRLKQEDTAVYYCAAHLWYHGHLFDYWGQGTQVTVSS” the “polyreactivity (PSR sort gate)” value was “high polyreactivity”.
For “QVQLVESGGGLVQAGGSLRLSCAASGLNFYDNVMGWSRPAPGKEREFVAAITSIGGSTYYADSVKGRFTISRDNAMNTVYLQMISLKPEDTAVYYCIGKSKYYSPNYDYWGQGTQVTVSS”, the “polyreactivity (PSR sort gate)” value was “low polyreactivity”.
With “QVQLVESGGGLVQAGGSLRLSCAASGLNFYGYFMGWYRQAPGKERELVAAISATGGSTYYADSVKGRFTISRDTAKNTVYLQMNSLKPEETAVYYCAATYYSYTWFSQYYYWGQGTQVTVSS” the “polyreactivity (PSR sort gate)” value was “high polyreactivity”.
In the case of “QVQLVESGGGLVQAGGSLRLSCAASGLNFYRNAMGWSRQAPGKERELVAAISASGGRTYYADSVKGRFTISRDNAKNTVYLPMNSLKPEDTAVYYCAAKSLWLSMDYWGQGTQVTVSS”, the “polyreactivity (PSR sort gate)” value is reported as “high polyreactivity”.
In the case of “QVQLVESGGGLVQAGGSLRLSCAASGLNQANYAMVWYRQAPGQEREMVAAISSSGGSTYYADSVKGRFTISRDNAKNTVYLQMNSLKPEDTAVYYCAAYPLYRRSWTGDYWGQGTQVTVSS”, the “polyreactivity (PSR sort gate)” value is reported as “high polyreactivity”.
With “QVQLVESGGGLVQAGGSLRLSCAASGLPFRYNVMGWYRQAPGKETALGATISTSAGDTYYADSVKGRFTISRDNAKNTVYLQMNSLKPEDTAVYYCNAEAWYSVEYDDWGQGTQVTVSS” the “polyreactivity (PSR sort gate)” value was “low polyreactivity”.
For “QVQLVESGGGLVQAGGSLRLSCAASGLSFSYYAMVWYRQAPGKERELVAAITSSGGNTYYADSVKGRFTISRDNANNTVYLQMNSLKPEDTAVYYCNDRRYLRGYGYGYWGQGTQVTVSS”, the “polyreactivity (PSR sort gate)” value was “high polyreactivity”.
With “QVQLVESGGGLVQAGGSLRLSCAASGLSLDVNVMGWYRPAPGKERELVAGIRSDSRTNYADSVKGRFTISRDNAKNTVYLQMNRLKPEDTAVYYCATRDKYISYYTYPYYSWGQGTQVTVSS” the “polyreactivity (PSR sort gate)” value was “low polyreactivity”.
In the case of “QVQLVESGGGLVQAGGSLRLSCAASGLSSLRMLWDGRDRRLGKKGSWLPLITSGGDSTNYADSVKGRFTISRDNAKNTVYFQMNSLKPEDTAVYYCAADLDYPYGYLGQGTQVTVSS”, the “polyreactivity (PSR sort gate)” value is reported as “low polyreactivity”.
In the case of “QVQLVESGGGLVQAGGSLRLSCAASGLTFADNTMGWYRQAPGKERELVAAIDWSGGGTDYADSVKGRFTISRDNAKNTDYLQMNSLKPEDTAVYYCNAERTSWEDDYWGQGTQVTVSS”, the “polyreactivity (PSR sort gate)” value is reported as “low polyreactivity”.
With “QVQLVESGGGLVQAGGSLRLSCAASGLTFAFNAMGWYRPAPGKERELVAAISKSGGSTYYADSVKGRFTISRDNAKNTVYLQMNSLKPEDTAVYYCAAGFWYYSYPTLYEYGYWGQGTQVTVSS” the “polyreactivity (PSR sort gate)” value was “low polyreactivity”.
For “QVQLVESGGGLVQAGGSLRLSCAASGLTFAKYAMGWYRQAPGKERELVAAIRSGDDTTYADSVKGRFTISRDNAMNTVYLQMISLKPEDTAVYYCAARPIHYPPYYYWGQGTQVTVSS”, the “polyreactivity (PSR sort gate)” value was “high polyreactivity”.
In the case of “QVQLVESGGGLVQAGGSLRLSCAASGLTFALYAMGWYRQAPGKERELVAAITGSGGSTYYADSVKGRFTISRDTAKNSVYLQMNSLKPEDTAVYYCNKLFYRWRIVDKYYYCGQGTQVTVSS”, the “polyreactivity (PSR sort gate)” value is reported as “high polyreactivity”.
In the case of “QVQLVESGGGLVQAGGSLRLSCAASGLTFASNAMGWYRQAPGKERELVAAISWSDGSTYYADSVKGRFTISRDNAKNTVYLQMNSLKPEDTAVYYCAAESYFFSPRTREKFDYWGQGTQVTVSS”, the “polyreactivity (PSR sort gate)” value is reported as “low polyreactivity”.
In the case of “QVQLVESGGGLVQAGGSLRLSCAASGLTFASYAMGWYRPAPGKERELVARISRSGGSTYYADSVKGRFTISRDNAKNTVYLQMNSLKPEDTAVYYCAADYIFRRYPVGGIYDYDYWGQGTQVTVSS”, the “polyreactivity (PSR sort gate)” value is reported as “high polyreactivity”.
In the case of “QVQLVESGGGLVQAGGSLRLSCAASGLTFAYNTMGWYRQAPGKEREFVASISSSGGNTYYADSVKGRFTISRDNAKNTVYLQMNSLKPEDTAVYYCAAKKKYHYVASYKRFEYWGQVTQVTVSS”, the “polyreactivity (PSR sort gate)” value is reported as “low polyreactivity”.
In the case of “QVQLVESGGGLVQAGGSLRLSCAASGLTFAYYDMGWYRPAPGKERELVAAITSGGTTNYADSVKGRFTISRDNAKNTVYLQMNSQKPEDTADYYCAADRYYWGRYTLNYWGQGTQVTVSS”, the “polyreactivity (PSR sort gate)” value is reported as “low polyreactivity”.
For “QVQLVESGGGLVQAGGSLRLSCAASGLTFDDYAMGWYRPAPWKEREFVATITLRGGSTYYADSVKGRFTISRDNAKNTVYLQLNSLKPEDTAVYYCNTDLGYSLEWDYDYWGQGTQVTVSS”, the “polyreactivity (PSR sort gate)” value was “low polyreactivity”.
For “QVQLVESGGGLVQAGGSLRLSCAASGLTFDDYAMGWYRQAPGKERELVAAINWSGSNTYYADSVKGRFTISRDNAKNTVYLQMNSLKPEDTAVYYCATYSRIFKWEYYYWGQGTQVTVSS”, the “polyreactivity (PSR sort gate)” value was “high polyreactivity”.
For “QVQLVESGGGLVQAGGSLRLSCAASGLTFDKNVMGWYRQAHGKERELVAAISRSGGTTYYADSVKGRFTISRDNAKYTVYLQMNSLKPEDTAVYYCAKRAWTGYGYYYWGQGTQVTVSS”, the “polyreactivity (PSR sort gate)” value was “high polyreactivity”.
For “QVQLVESGGGLVQAGGSLRLSCAASGLTFDLYNMGVYRKAPGKERELVAAISLSGGSTYYADSVKGRFTISRDNAKNTVYLQMNILKPDYTAVYYCAAAHSSSVIVEYDYWGQGTQVTVSS”, the “polyreactivity (PSR sort gate)” value was “low polyreactivity”.
For “QVQLVESGGGLVQAGGSLRLSCAASGLTFDSNAMGWYRQAPGKERELVAAISGSVGSTYYADSVKGRFTISRDNAKNTVYLQMNSLKPEDTAVYYCNASSVDKGYDYWGQGTQVTVSS”, the “polyreactivity (PSR sort gate)” value was “low polyreactivity”.
For “QVQLVESGGGLVQAGGSLRLSCAASGLTFDVYTMGWYRQAPGKERELVATISETYYADSVKGRFTISRDNAKNTVYLQMNSLKPEDTAVYYCAANGFKAQYRDIVYDYGYWGQGTQVTVSS”, the “polyreactivity (PSR sort gate)” value was “low polyreactivity”.
For “QVQLVESGGGLVQAGGSLRLSCAASGLTFDYYAMGWYRQAPGKERELVAVISRVGSTYYADSVKGRFTISRDNAKNTVYLQINSLKPEDTAVYYCAADLWHSYQDMYYWGQGTQVTVSS”, the “polyreactivity (PSR sort gate)” value was “low polyreactivity”.
In the case of “QVQLVESGGGLVQAGGSLRLSCAASGLTFERYAMGWYRQAPGKERELVAAISIRGGSTYYADSVKGRFTISRDNAKNTVYLQMNSLKPEDTAVYYCNAESFSFYPSWHEYDYWGQGTQVTVSS”, the “polyreactivity (PSR sort gate)” value is reported as “low polyreactivity”.
With “QVQLVESGGGLVQAGGSLRLSCAASGLTFEVYAMGWYRQARGKERELVAAISSGGGATYYADSVKGRFTISRDNAKNTVYLQMNSLKPEDTAVYYCAAVDPYERYVYWGQGTQVTVSS” the “polyreactivity (PSR sort gate)” value was “low polyreactivity”.
For “QVQLVESGGGLVQAGGSLRLSCAASGLTFEYNAMGWYRQAPGKERELVATISNGGITSYADSVKGRFTISRDNAKNTVYLQMNSLKPEDTAVYYCAASYADSPTTDQLWLEYDSWGQGTQVTVSS”, the “polyreactivity (PSR sort gate)” value was “low polyreactivity”.
With “QVQLVESGGGLVQAGGSLRLSCAASGLTFFGNAMGWYRQAPGKERELVATISSGGGTSYADSVKGRFTISRDNAKNTVYLQMNSLKPEDTAVYYCAADIVEEFDYWGQGTQVTVSS” the “polyreactivity (PSR sort gate)” value was “low polyreactivity”.
For “QVQLVESGGGLVQAGGSLRLSCAASGLTFFGYTMGWYRQAPGKEREFVADITWSGGSTYYADSVKGRFTISRDNAKNTVYLQMNSLKPEVTAVYYCAVAPPNWDPFVDDTYLMDYWGQGTQVTLSS”, the “polyreactivity (PSR sort gate)” value was “low polyreactivity”.
For “QVQLVESGGGLVQAGGSLRLSCAASGLTFFWNAMGWYRQAPGKERELVAAISYSGGSTSYADSVKGRFTISRDNAKNSVYLQMNSLKPEDTAVYYCAAEYWYGPSKGDYWGQGTQVTVSS”, the “polyreactivity (PSR sort gate)” value was “high polyreactivity”.
With “QVQLVESGGGLVQAGGSLRLSCAASGLTFGANDMGWYRQAPGKERELVAAIDWSGGSTFYADSVKGRFTISRDNAKNTVYLQMNSLKPEDTAVYYCAALGFGYPYPEYDYWGQGTQVTVSS” the “polyreactivity (PSR sort gate)” value was “low polyreactivity”.
